Measured values as given in patent US6740739B1, “Substitutional variants of APO-2 ligand” (Genentech, Inc., priority 1998, dated 2004).
Where a chain is given by its changes, count along the chain named. Numbers in names are those of the source.

B1: D218A: Apo-2 ligand amino acids 91-281 with aspartic acid at position 218 substituted by alanine (protein)
chain: MAMMEVQGGPSLGQTCVLIVIFTVLLQSLCVAVTYVYFTNELKQMQDKYSKSGIACFLKEDDSYWDPNDEESMNSPCWQVKWQLRQLVRKMILRTSEETISTVQEKQQNISPLVRERGPQRVAAHITGTRGRSNTLSSPNSKNEKALGRKINSWESSRSGHSFLSNLHLRNGELVIHEKGFYYIYSQTYFRFQEEIKENTKNDKQMVQYIYKYTSYPAPILLMKSARNSCWSKDAEYGLYSIYQGGIFELKENDRIFVSVTNEHLIDMDHEASFFGAFLVG
B2: D269A: Apo-2 ligand amino acids 91-281 with aspartic acid at position 269 substituted by alanine (protein)
chain: B1 chain with A218D, D269A

What was measured:
DcR2 = target: T1, DcR2 (Homo sapiens, UniProt Q9UBN6); experiment: BIAcore kinetic binding analysis; settings: IgG-receptor fusion DcR2 immobilized; significant = >2-fold; FIG. 19
T1 construct: Each of the Apo-2L receptor proteins were prepared as immuno adhesin sessentially as described in Ashkenazi et al; made in house
T1 sequence (Q9UBN6 56-211 limits assumed): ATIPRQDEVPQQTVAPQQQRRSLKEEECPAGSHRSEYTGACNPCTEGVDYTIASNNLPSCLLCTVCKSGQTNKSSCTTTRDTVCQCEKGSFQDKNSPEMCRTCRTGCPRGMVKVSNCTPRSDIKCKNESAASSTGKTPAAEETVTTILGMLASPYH
Procedure: (§1) For comparison, Apo-2L, consisting of amino acids 91-281 was also tested in the BIAcore for binding to the IgG-receptor fusion molecules. Each of the Apo-2L receptor proteins were prepared as immuno adhesin sessentially as described in Ashkenazi et al., Proc. Natl. Acad. Sci., 88:10535-10539 (1991). The IgG-receptor fusion molecules were immobilized to the CM5 BIAcore chip, research grade (Pharmacia), using NHS-EDC amine coupling chemistry. The Apo-2L alanine-substituted proteins were serially diluted 2-fold from 500 nM to 15.625 nM in the BIAcore running buffer, PBS/0.05% Tween 20, and passed across the sensor chip surface with immobilized receptor. Specific kinetic binding parameters were used to determine the KD value using the BIAcore evaluation software (according to manufacturer's instructions).

DR4 = target: T2, DR4 (Homo sapiens, UniProt O00220); experiment: BIAcore kinetic binding analysis; settings: IgG-receptor fusion DR4 immobilized; significant = >2-fold; FIG. 19
T2 construct: Each of the Apo-2L receptor proteins were prepared as immuno adhesin sessentially as described in Ashkenazi et al; made in house
Procedure: as §1

OPG = target: T3, OPG (Homo sapiens, UniProt O00300); experiment: BIAcore kinetic binding analysis; settings: OPGR-IgG immobilized; FIG. 19
T3 construct: made in house
T3 sequence (O00300 22-401): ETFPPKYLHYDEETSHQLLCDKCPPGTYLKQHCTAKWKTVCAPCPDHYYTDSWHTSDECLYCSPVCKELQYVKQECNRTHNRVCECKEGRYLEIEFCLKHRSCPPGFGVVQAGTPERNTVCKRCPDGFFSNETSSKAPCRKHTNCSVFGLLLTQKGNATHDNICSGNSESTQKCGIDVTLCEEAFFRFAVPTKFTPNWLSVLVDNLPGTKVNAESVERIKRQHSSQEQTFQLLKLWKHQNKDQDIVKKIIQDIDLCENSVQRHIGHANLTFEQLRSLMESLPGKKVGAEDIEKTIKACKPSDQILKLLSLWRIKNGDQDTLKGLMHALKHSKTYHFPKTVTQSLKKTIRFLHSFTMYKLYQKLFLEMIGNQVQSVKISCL
Procedure: as §1

DR5 = target: T4, DR5 (Homo sapiens, UniProt O14763); experiment: BIAcore kinetic binding analysis; settings: IgG-receptor fusion DR5 immobilized; significant = >2-fold; FIG. 19
T4 construct: Each of the Apo-2L receptor proteins were prepared as immuno adhesin sessentially as described in Ashkenazi et al; made in house
Procedure: as §1

SK-MES-1 cells = experiment: Apoptosis bioassay with crystal violet staining; assay type: cell-based, human; settings: 24 hours, FIGS. 17 and 18
Procedure: SK-MES-1 human lungcarcinomacells (ATCCHTB 58) were culturedin DMEM:Ham'sF-12 (50:50) media supplemented with 10% FBS, 2 mM L-glutamine, 100 U/ml penicillin, and 100 microgram streptomycin. SK-MES-1 cells were seeded in 96-well Falcon tissue culture treated microplates in a volume of 0.1 ml at a density of 4.0×10^4 cells/well and allowed to attach overnight at 37° C. Apoptosis was induced by adding the various Apo-2L substitutional variants or Apo-2L (consisting of amino acids 91-281 of FIG. 1A; referred to as Apo-2L.2) for 24 hours. Following treatment with the test proteins, the media was removed and the wells were stained for 15 minutes with a 0.5% solution of crystal violet in methanol. The cell number was determined by measuring optical density of the dry plates at 540 nm using a SLT 340 ATC plate reader (Salzburg, Austria).

T2 sequence (O00220 24-239 limits assumed): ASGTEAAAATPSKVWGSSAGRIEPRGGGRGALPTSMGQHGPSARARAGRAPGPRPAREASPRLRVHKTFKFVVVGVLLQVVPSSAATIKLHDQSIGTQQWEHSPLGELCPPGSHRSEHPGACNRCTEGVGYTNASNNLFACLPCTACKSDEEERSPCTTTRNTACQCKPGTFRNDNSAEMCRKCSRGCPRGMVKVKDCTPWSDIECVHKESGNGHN
T4 sequence (O14763 56-184 limits assumed): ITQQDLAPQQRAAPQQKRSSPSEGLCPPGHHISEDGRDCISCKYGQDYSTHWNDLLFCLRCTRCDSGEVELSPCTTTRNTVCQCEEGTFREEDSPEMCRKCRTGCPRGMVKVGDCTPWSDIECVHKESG

Molecule	change in binding (KD) compared to Apo-2L.2 (DcR2)	change in binding (KD) compared to Apo-2L.2 (DR4)	binding to OPGR-IgG compared to Apo-2L.2 (OPG)	change in binding (KD) compared to Apo-2L.2 (DR5)	increased apoptosis-inducing activity when compared to Apo-2L.2 (SK-MES-1 cells)
B1	no significant change	no significant change	tighter binding	no significant change	approximately 3 fold
B2	no significant change	no significant change	tighter binding	no significant change	~7 fold
